Literature values as cited in patent publication US20040047891A1, “Systems devices and methods for intrabody targeted delivery and reloading of therapeutic agents” (priority 2003, published 2004).
Like-named read-outs stand apart in the source and are kept apart here.

Legend:
[1] = molecular target: T1, ET-A receptor (Homo sapiens, UniProt P25101)
T1 sequence (P25101 21-427): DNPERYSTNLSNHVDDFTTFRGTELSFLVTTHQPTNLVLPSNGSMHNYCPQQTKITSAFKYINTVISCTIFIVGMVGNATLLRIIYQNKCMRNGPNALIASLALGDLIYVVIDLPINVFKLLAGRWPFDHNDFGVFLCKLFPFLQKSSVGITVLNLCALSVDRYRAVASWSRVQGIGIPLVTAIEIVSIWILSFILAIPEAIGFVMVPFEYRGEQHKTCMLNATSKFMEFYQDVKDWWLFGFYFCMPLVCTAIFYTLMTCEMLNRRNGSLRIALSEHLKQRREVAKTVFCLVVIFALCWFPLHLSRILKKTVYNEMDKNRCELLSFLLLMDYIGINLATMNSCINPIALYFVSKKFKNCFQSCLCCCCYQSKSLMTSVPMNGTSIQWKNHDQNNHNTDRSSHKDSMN

Molecule	Time to dissociate from the ET-A receptor [1]	Koff (pH 2)	Koff (pH 3)	Koff (pH 5)	Koff (pH 7)	Koff (pH 1.7)	Koff (pH 9.2)	Koff (pH 10.5)
CCCCN(CCCC)C(=O)CN1C[C@H](c2ccc3c(c2)OCO3)[C@@H](C(=O)O)[C@@H]1c1ccc(OC)cc1 [ABT-627]	≤ 2 h							
Avidin: biotin-binding protein, source chicken egg white; member of the biotin-avidin binding pair		200 sec^−1 · 10^7	9 sec^−1 · 10^7	0.9 sec^−1 · 10^7	0.4 sec^−1 · 10^7			
Streptavidin: avidin derivative, source fermentation, no carbohydrates			19 sec^−1 · 10^7	8.7 sec^−1 · 10^7	28 sec^−1 · 10^7	35 sec^−1 · 10^7	64 sec^−1 · 10^7	100 sec^−1 · 10^7
